The target in assay [1] is T1, ErbB3 extracellular domain, His-tagged (human, UniProt P21860 20-643).
T1 construct: Expressed in baculovirus-infected Sf9 cells and de-glycosylated for crystallography; also called ErbB3-ECD; ErbB3 ECD; not shown: C-terminal hexa-histidine tag, told in words only
The assay is described as follows: SPR (BIAcore T100, 25 C), 2C2 Fab immobilised on CM5 chip, ErbB3 ECD in flow.

Assay [2] deals with T2, ErbB3 domain III, His-tagged (human, UniProt P21860 329-521).
T2 construct: also called purified domain III; D3; not shown: His tag
The assay is described as follows: SPR (BIAcore T100, 25 C), 2C2 Fab immobilised on CM5 chip, ErbB3 domain III in flow.

In assay [3] the target is T3, cell-surface expressed ErbB3 (Homo sapiens (Human), UniProt P21860 20-1342).
T3 construct: also called HER3
The assay is described as follows: flow cytometry, Alexa-647-labelled 2C2 titrated on BaF3 cells co-expressing ErbB2 and ErbB3, on ice; single-site binding isotherm. On the technique in general: Flow cytometry measures light scatter and fluorescence of single cells or particles in a stream.

Assay [4] deals with T4, ErbB3 domain I, His-tagged (human, UniProt P21860 20-201).
T4 construct: also called D1; not shown: His tag
The experiment in a line: ELISA, His-tagged ErbB3 domain I coated on the plate, 2C2 titrated, HRP anti-human secondary antibody, chemiluminescence.

Assay [5] deals with T5, ErbB3 domain II, His-tagged (human, UniProt P21860 202-328).
T5 construct: also called D2; not shown: His tag
The experiment in a line: ELISA, His-tagged ErbB3 domain II coated on the plate, 2C2 titrated, HRP anti-human secondary antibody, chemiluminescence.

Assay [6] concerns the target T6, ErbB3 domain IV, His-tagged (human, UniProt P21860 522-643).
T6 construct: also called D4; not shown: His tag
The experiment in a line: ELISA, His-tagged ErbB3 domain IV coated on the plate, 2C2 titrated, HRP anti-human secondary antibody, chemiluminescence. In general terms: In an ELISA, binding on a coated surface is turned into a signal by an enzyme label.

Assay [7] concerns the target T2, ErbB3 domain III, His-tagged. The experiment in a line: ELISA, His-tagged ErbB3 domain III coated on the plate, 2C2 titrated, HRP anti-human secondary antibody, chemiluminescence.
Assay [8] has as its target T1, ErbB3 extracellular domain, His-tagged. The assay is described as follows: SPR (BIAcore T100), Fab immobilised on a CM5 chip, ErbB3-ECD passed over in rising concentrations, long dissociation, 1:1 binding model. (In general: SPR reads the build-up and loss of mass on a sensor chip optically.)

Numbering of substitutions follows the chain as printed. In names and notes the source's numbering stands.

B1: 2C2 Fab (Fab, V domains shown)
VH: EVQLLESGGGLVQPGGSLRLSCAASGFTFSYYYMQWVRQAPGKGLEWVSYIGSSGGVTNYADSVKGRFTISRDNSKNTLYLQMNSLRAEDTAVYYCARVGLGDAFDIWGQGTMVTVSS
VL: QSVLTQPPSASGTPGQRVTISCSGSLSNIGLNYVSWYQQLPGTAPKLLISRNNQRPSGVPDRFSGSKSGTSASLAISGLRSEDEADYYCAAWDDSPPGEAFGGGTKLTVL
notes: Fab expressed in E. coli (pET26b, pelB signal peptide); also called Fab fragment of 2C2; Fab 2C2
A word on the Kd: it is the equilibrium constant for the complex coming apart. Read a low Kd as tighter binding. For the molecule B1, the Kd is 0.166 nM in assay [1] and 0.377 nM in assay [2].

B2: 2C2 antibody (whole antibody used in the examples was 2C2-YTE) (antibody, V domains shown)
VH: B1 VH
VL: B1 VL
notes: Whole anti-ErbB3 antibody of WO 2013/078191
For orientation: EC50 (read off the curve) means the concentration needed to bring the measured effect to its halfway point. A higher EC50 (read off the curve) goes with weaker potency. For the molecule B2, the affinity in assay [3], expressed as Kd, was 0.08 nM. Moreover, the binding result in assay [4], in assay [5] and in assay [6] was “no binding (tested: about 60 nM (log nM about 1.8))” each time. In addition, the “EC50 (read off the curve)” value in assay [7] was about 0.5 nM.

B3: S23R Fab (Fab, V domains shown)
VH: B1 VH
VL: B1 VL with S23R
notes: 2C2 Fab variant with serine to arginine at residue 23 of the light chain (CDR1); also called S23R Fab antibody
One may read the koff as the rate constant with which the complex falls apart. High values mean fast dissociation, low ones slow dissociation. In assay [8], B3 came in with a koff of 8.3e-05 s⁻¹.

B4: S25H Fab (Fab, V domains shown)
VH: B1 VH
VL: B1 VL with S25H
notes: 2C2 Fab variant with serine to histidine at residue 25 of the light chain (CDR1), made by QuikChange mutagenesis; also called S25H Fab antibody
B4: the off-rate (koff) in assay [8] was 5.5e-05 s⁻¹.
